Experiment [1] deals with T1, E6AP AZUL (UniProt Q05086 24-87).
T1 construct: AZUL domain of E6AP/UBE3A; Used unlabeled or 15N-labeled; source: expressed and purified as described previously (Buel et al., 2020)
T1 sequence: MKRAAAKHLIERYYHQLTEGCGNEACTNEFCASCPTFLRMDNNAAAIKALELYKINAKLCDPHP
Put plainly: NMR titration; unlabeled UBQLN1 constructs added to 0.05 mM 15N-E6AP AZUL; 1H-15N HSQC; Buffer E (10 mM MOPS pH 6.5, 50 mM NaCl, 5 mM DTT, 10 μM zinc sulfate), 25 °C. To be noted: both partners purified.

In experiment [2] the target is T2, UBQLN2 (UniProt Q9UHD9 1-624).
T2 construct: UBQLN2 full-length construct; Phase separates into droplets at 37 °C with 200 mM NaCl; also called UBQLN2 full-length; source: E. coli BL21 (DE3), purified (glutathione sepharose, PreScission cleavage, SEC); not shown: GST, N-terminal, cleaved
Put plainly: recruitment to phase-separated droplets (confocal fluorescence microscopy, in vitro); 50 µM UBQLN2 construct with 25 µM AZUL-mEGFP or EGFP in 20 mM NaPO4, 200 mM NaCl, 2.5 µM ZnSO4 (pH 6.8) at 37 °C. Conditions: both partners purified.

B1: UBQLN1 UBA (541-589) (domain or fragment, UniProt Q9UMX0 541-589, looked up)
chain: QNPEVRFQQQLEQLSAMGFLNREANLQALIATGGDINAAIERLLGSQPS
notes: The construct contains a tyrosine residue in the tag to enable quantitation at A280; source: E. coli BL21 (DE3), purified (glutathione sepharose, PreScission cleavage, SEC); not shown: GST, N-terminal, cleaved
Take B1: in experiment [1], the binding result is given as “binds”.

B2: AZUL-mEGFP (domain or fragment, UniProt Q05086 24-87, looked up)
chain: MKRAAAKHLIERYYHQLTEGCGNEACTNEFCASCPTFLRMDNNAAAIKALELYKINAKLCDPHP
notes: E6AP isoform II residues 24-87 (AZUL); AZUL and mEGFP are separated by a TEV protease cut site; A206K is numbered relative to avGFP (A207K relative to EGFP); also called E6AP isoform II 24-87 with a C-terminal mEGFP; source: E. coli BL21 (DE3), purified (glutathione sepharose, PreScission cleavage, SEC); not shown: GST, N-terminal, cleaved; mEGFP (EGFP with A206K), C-terminal, kept
Consider B2, for which, in experiment [2], the binding result is reported as “binds”.

Source of the values: publication doi:10.1101/2022.09.29.510132 (bioRxiv, 2022).
